Results from patent publication US20220372155A1 (LYVGEN BIOPHARMA, published 2022).

B1: TM553 (antibody, human IgG2, kappa)
heavy: QVQLVESGGGLVQPGGSLKLSCATSGFNFNDSFMNWVRQASGKGLEWVGQIRNKNYNYATYYTESLEGRVTISRDDSKNTAYLQMNSLKTEDTAVYYCTSYYYDGFADYFDYWGQGTTVTVSSASTKGPSVFPLAPCSRSTSESTAALGCLVKDYFPEPVTVSWNSGALTSGVHTFPAVLQSSGLYSLSSVVTVPSSNFGTQTYTCNVDHKPSNTKVDKTVERKCCVECPPCPAPPVAGPSVFLFPPKPKDTLMISRTPEVTCVVVDVSHEDPEVQFNWYVDGVEVHNAKTKPREEQFNSTFRVVSVLTVVHQDWLNGKEYKCKVSNKGLPAPIEKTISKTKGQPREPQVYTLPPSREEMTKNQVSLTCLVKGFYPSDIAVEWESNGQPENNYKTTPPMLDSDGSFFLYSKLTVDKSRWQQGNVFSCSVMHEALHNHYTQKSLSLSPG
light: DIQMTQSPSSLSASVGDRVTITCKASQNIYIYLNWYQQKPGKAPKLLIYNTNNLQTGVPSRFSGSGSGTDFTLTISSLQPEDFATYYCLQHSSRRTFGGGTKVEIKRTVAAPSVFIFPPSDEQLKSGTASVVCLLNNFYPREAKVQWKVDNALQSGNSQESVTEQDSKDSTYSLSSTLTLSKADYEKHKVYACEVTHQGLSSPVTKSFNRGEC
notes: VH-2/IgG2, VL-1/kappa
B2: Ly181 (antibody, human IgG2, kappa)
heavy: QVQLVESGGGLVQPGGSLKLSCATSGFNFNDYFMNWVRQASGKGLEWVGQIRNKNYNYATYYTESLEGRVTISRDDSKNTAYLQMNSLKTEDTAVYYCTSYYYDGFADYFDYWGQGTTVTVSSASTKGPSVFPLAPCSRSTSESTAALGCLVKDYFPEPVTVSWNSGALTSGVHTFPAVLQSSGLYSLSSVVTVPSSNFGTQTYTCNVDHKPSNTKVDKTVERKCCVECPPCPAPPVAGPSVFLFPPKPKDTLMISRTPEVTCVVVDVSHEDPEVQFNWYVDGVEVHNAKTKPREEQFNSTFRVVSVLTVVHQDWLNGKEYKCKVSNKGLPAPIEKTISKTKGQPREPQVYTLPPSREEMTKNQVSLTCLVKGFYPSDIAVEWESNGQPENNYKTTPPMLDSDGSFFLYSKLTVDKSRWQQGNVFSCSVMHEALHNHYTQKSLSLSPG
light: DIQMTQSPSSLSASVGDRVTITCKASQNIYIYLNWYQQKPGKAPKLLIYNTNNLQTGVPSRFSGSGSGTDFTLTISSLQPEDFATYYCLQHSSRRTFGGGTKVEIKRTVAAPSVFIFPPSDEQLKSGTASVVCLLNNFYPREAKVQWKVDNALQSGNSQESVTEQDSKDSTYSLSSTLTLSKADYEKHKVYACEVTHQGLSSPVTKSFNRGEC
notes: VH-2Y/IgG2, VL-1/kappa
B3: TM550 (antibody, human IgG2, kappa, V domains shown)
VH: EVQLVESGGGLVQPGGSLKLSCAASGFNFNDSFMNWVRQASGKGLEWVGQIRNKNYNYATYYTESLEGRFTISRDDSKNTAYLQMNSLKTEDTAVYYCTRYYYDGFADYFDYWGQGTTVTVSS
VL: DIQMTQSPSSLSASVGDRVTITCKASQNIYIYLNWYQQKPGKAPKLLIYNTNNLQTGVPSRFSGSGSGTDFTLTISSLQPEDFATYYCLQHSSRRTFGGGTKVEIKR
notes: CDR grafted humanized LYV377
B4: LP3773 (antibody, human IgG1, kappa)
heavy: QVQLVESGGGLVQPGGSLKLSCATSGFNFNDSFMNWVRQASGKGLEWVGQIRNKNYNYATYYTESLEGRVTISRDDSKNTAYLQMNSLKTEDTAVYYCTSYYYDGFADYFDYWGQGTTVTVSSASTKGPSVFPLAPSSKSTSGGTAALGCLVKDYFPEPVTVSWNSGALTSGVHTFPAVLQSSGLYSLSSVVTVPSSSLGTQTYICNVNHKPSNTKVDKKVEPKSCDKTHTCPPCPAPELLGPSVFLFPPKPKDTLMISRTPEVTCVVVDVEHEDPEVKFNWYVDGVEVHNAKTKPREEQYNSTYRVVSVLTVLHQDWLNGKEYKCKVSNKALPAPIEKTISKAKGQPREPQVYTLPPSREEMTKNQVSLTCLVKGFYPSDIAVEWESNGQPENNYKTTPPVLDSDGSFFLYSKLTVDKSRWQQGNVFSCSVMHEALHNHYTQKSLSLSPG
light: DIQMTQSPSSLSASVGDRVTITCKASQNIYIYLNWYQQKPGKAPKLLIYNTNNLQTGVPSRFSGSGSGTDFTLTISSLQPEDFATYYCLQHSSRRTFGGGTKVEIKRTVAAPSVFIFPPSDEQLKSGTASVVCLLNNFYPREAKVQWKVDNALQSGNSQESVTEQDSKDSTYSLSSTLTLSKADYEKHKVYACEVTHQGLSSPVTKSFNRGEC
notes: VH-2/IgG1mut, VL-1/kappa
B5: TM738 (antibody, human IgG1, kappa, V domains shown)
VH: QVQLVESGGGLVQPGGSLKLSCATSGFNFQDSFMNWVRQASGKGLEWVGQIRNKNYNYATYYTESLEGRVTISRDDSKNTAYLQMNSLKTEDTAVYYCTSYYYDGFADYFDYWGQGTTVTVSS
VL: DIQMTQSPSSLSASVGDRVTITCKASQNIYIYLNWYQQKPGKAPKLLIYNTNNLQTGVPSRFSGSGSGTDFTLTISSLQPEDFATYYCLQHSSRRTFGGGTKVEIKR
notes: VH-2Q/IgG1mut, VL-1/kappa
B6: TM739 (antibody, human IgG1, kappa, V domains shown)
VH: QVQLVESGGGLVQPGGSLKLSCATSGFNFNDAFMNWVRQASGKGLEWVGQIRNKNYNYATYYTESLEGRVTISRDDSKNTAYLQMNSLKTEDTAVYYCTSYYYDGFADYFDYWGQGTTVTVSS
VL: DIQMTQSPSSLSASVGDRVTITCKASQNIYIYLNWYQQKPGKAPKLLIYNTNNLQTGVPSRFSGSGSGTDFTLTISSLQPEDFATYYCLQHSSRRTFGGGTKVEIKR
notes: VH-2A/IgG1mut, VL-1/kappa
B7: TM740 (antibody, human IgG1, kappa)
heavy: QVQLVESGGGLVQPGGSLKLSCATSGFNFNDYFMNWVRQASGKGLEWVGQIRNKNYNYATYYTESLEGRVTISRDDSKNTAYLQMNSLKTEDTAVYYCTSYYYDGFADYFDYWGQGTTVTVSSASTKGPSVFPLAPSSKSTSGGTAALGCLVKDYFPEPVTVSWNSGALTSGVHTFPAVLQSSGLYSLSSVVTVPSSSLGTQTYICNVNHKPSNTKVDKKVEPKSCDKTHTCPPCPAPELLGPSVFLFPPKPKDTLMISRTPEVTCVVVDVEHEDPEVKFNWYVDGVEVHNAKTKPREEQYNSTYRVVSVLTVLHQDWLNGKEYKCKVSNKALPAPIEKTISKAKGQPREPQVYTLPPSREEMTKNQVSLTCLVKGFYPSDIAVEWESNGQPENNYKTTPPVLDSDGSFFLYSKLTVDKSRWQQGNVFSCSVMHEALHNHYTQKSLSLSPG
light: DIQMTQSPSSLSASVGDRVTITCKASQNIYIYLNWYQQKPGKAPKLLIYNTNNLQTGVPSRFSGSGSGTDFTLTISSLQPEDFATYYCLQHSSRRTFGGGTKVEIKRTVAAPSVFIFPPSDEQLKSGTASVVCLLNNFYPREAKVQWKVDNALQSGNSQESVTEQDSKDSTYSLSSTLTLSKADYEKHKVYACEVTHQGLSSPVTKSFNRGEC
notes: VH-2Y/IgG1mut, VL-1/kappa
B8: TM559 (antibody, human IgG2, kappa)
heavy: EVQLVESGGGLVQPGGSLRLSCAASGFTFTNYGLHWVRQAPGKGLEWVSSISPSGGVTYYRDSVKGRFTISRDNSKNTLYLQMNSLRAEDTAVYYCAKPFLGWGGANWIAHWGQGTLVTVSSASTKGPSVFPLAPCSRSTSESTAALGCLVKDYFPEPVTVSWNSGALTSGVHTFPAVLQSSGLYSLSSVVTVPSSNFGTQTYTCNVDHKPSNTKVDKTVERKCCVECPPCPAPPVAGPSVFLFPPKPKDTLMISRTPEVTCVVVDVSHEDPEVQFNWYVDGVEVHNAKTKPREEQFNSTFRVVSVLTVVHQDWLNGKEYKCKVSNKGLPAPIEKTISKTKGQPREPQVYTLPPSREEMTKNQVSLTCLVKGFYPSDIAVEWESNGQPENNYKTTPPMLDSDGSFFLYSKLTVDKSRWQQGNVFSCSVMHEALHNHYTQKSLSLSPG
light: DIQMTQSPSSLSASVGDRVTITCLASEDISNDLAWYQQKPGKAPKLLIYFVDRLLDGVPSRFSGSGSGTDFTLTISSLQPEDFATYYCQQSYKYPPTFGQGTKLEIKRTVAAPSVFIFPPSDEQLKSGTASVVCLLNNFYPREAKVQWKVDNALQSGNSQESVTEQDSKDSTYSLSSTLTLSKADYEKHKVYACEVTHQGLSSPVTKSFNRGEC
notes: LYV378_VH-1/IgG2, LYV378_VL-1/kappa
B9: TM378 (antibody, human IgG4 S228P, kappa, V domains shown)
VH: EVHLVESGGGLVQPGRSLKLSCAASGFTFTNYGLHWIRQAPTKGLEWVASISPSGGVTYYRDSVKGRFTISRDNGKTTLHLQMDSLRSEDTATYYCALPFLGWGGANWIAHWGQGTLVTVSS
VL: DIQMTQSPASLSASLGETVSIECLASEDISNDLAWYQQKSGKSPQLLIYFVDRLLDGVPSRFSGSGSGTRHSLKISGMQPEDEADYFCQQSYKYPPTFGGGTKLELKR
notes: chimeric LYV378, human IgG4; also called chimeric counterpart TM378
B10: LP3781 (antibody, human IgG1, kappa)
heavy: not shown
light: DIQMTQSPSSLSASVGDRVTITCLASEDISNDLAWYQQKPGKAPKLLIYFVDRLLDGVPSRFSGSGSGTDFTLTISSLQPEDFATYYCQQSYKYPPTFGQGTKLEIKRTVAAPSVFIFPPSDEQLKSGTASVVCLLNNFYPREAKVQWKVDNALQSGNSQESVTEQDSKDSTYSLSSTLTLSKADYEKHKVYACEVTHQGLSSPVTKSFNRGEC
notes: LYV378_VH-1/IgG1, LYV378_VL-1/kappa; also called TM3781
B11: LP3782 (antibody, human IgG4 S228P, kappa)
heavy: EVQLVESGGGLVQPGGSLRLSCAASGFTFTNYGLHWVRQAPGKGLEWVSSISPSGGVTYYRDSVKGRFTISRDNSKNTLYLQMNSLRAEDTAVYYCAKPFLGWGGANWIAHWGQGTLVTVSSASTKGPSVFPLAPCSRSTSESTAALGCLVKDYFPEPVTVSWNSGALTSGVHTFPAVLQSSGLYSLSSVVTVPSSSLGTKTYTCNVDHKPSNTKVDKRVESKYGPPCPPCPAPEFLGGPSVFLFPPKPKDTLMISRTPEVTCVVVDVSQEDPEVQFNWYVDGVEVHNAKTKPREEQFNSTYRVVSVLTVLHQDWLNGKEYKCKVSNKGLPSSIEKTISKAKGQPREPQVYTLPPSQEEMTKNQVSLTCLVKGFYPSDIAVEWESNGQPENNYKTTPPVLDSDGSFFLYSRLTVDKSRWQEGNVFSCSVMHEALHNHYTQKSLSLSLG
light: DIQMTQSPSSLSASVGDRVTITCLASEDISNDLAWYQQKPGKAPKLLIYFVDRLLDGVPSRFSGSGSGTDFTLTISSLQPEDFATYYCQQSYKYPPTFGQGTKLEIKRTVAAPSVFIFPPSDEQLKSGTASVVCLLNNFYPREAKVQWKVDNALQSGNSQESVTEQDSKDSTYSLSSTLTLSKADYEKHKVYACEVTHQGLSSPVTKSFNRGEC
notes: LYV378_VH-1/IgG4, LYV378_VL-1/kappa; also called TM3782
B12: LP3783 (antibody, human IgG1, kappa)
heavy: EVQLVESGGGLVQPGGSLRLSCAASGFTFTNYGLHWVRQAPGKGLEWVSSISPSGGVTYYRDSVKGRFTISRDNSKNTLYLQMNSLRAEDTAVYYCAKPFLGWGGANWIAHWGQGTLVTVSSASTKGPSVFPLAPSSKSTSGGTAALGCLVKDYFPEPVTVSWNSGALTSGVHTFPAVLQSSGLYSLSSVVTVPSSSLGTQTYICNVNHKPSNTKVDKKVEPKSCDKTHTCPPCPAPELLGPSVFLFPPKPKDTLMISRTPEVTCVVVDVEHEDPEVKFNWYVDGVEVHNAKTKPREEQYNSTYRVVSVLTVLHQDWLNGKEYKCKVSNKALPAPIEKTISKAKGQPREPQVYTLPPSREEMTKNQVSLTCLVKGFYPSDIAVEWESNGQPENNYKTTPPVLDSDGSFFLYSKLTVDKSRWQQGNVFSCSVMHEALHNHYTQKSLSLSPG
light: DIQMTQSPSSLSASVGDRVTITCLASEDISNDLAWYQQKPGKAPKLLIYFVDRLLDGVPSRFSGSGSGTDFTLTISSLQPEDFATYYCQQSYKYPPTFGQGTKLEIKRTVAAPSVFIFPPSDEQLKSGTASVVCLLNNFYPREAKVQWKVDNALQSGNSQESVTEQDSKDSTYSLSSTLTLSKADYEKHKVYACEVTHQGLSSPVTKSFNRGEC
notes: LYV378_VH-1/IgG1mut, LYV378_VL-1/kappa; also called TM3783; Ly3783

Each binder was assayed against T1, human CD40 expressed on CHO cells (human, UniProt P25942 21-277) (assay: FACS, CHO cells).
T1 construct: whole, on cells; also used for the reporter cells over-expressing human CD40; also called cellular CD40; CHO-CD40 cells
T1 sequence (P25942 21-277): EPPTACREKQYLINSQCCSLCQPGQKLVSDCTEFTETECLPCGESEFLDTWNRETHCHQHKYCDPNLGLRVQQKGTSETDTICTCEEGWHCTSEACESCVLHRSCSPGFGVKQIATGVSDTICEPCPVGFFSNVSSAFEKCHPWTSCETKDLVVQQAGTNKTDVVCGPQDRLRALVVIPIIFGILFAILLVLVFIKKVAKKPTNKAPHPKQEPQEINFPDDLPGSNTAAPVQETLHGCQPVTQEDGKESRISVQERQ

Binder	binding result
B1	binds
B2	binds
B3	binds
B4	binds
B5	binds
B6	binds
B7	binds
B8	binds
B9	binds
B10	binds
B11	binds
B12	binds
